According to patent publication US20210015858A1 (I MAB BIOPHARMA US, published 2021):
Blank lines part the entries; values can stand above or below the binder they belong to.

Key:
[1] = molecular target: T1, recombinant His-tagged human TIGIT-ECD protein (human, UniProt Q495A1 22-141); assay: SPR affinity ranking (Biacore T200)
T1 construct: extracellular domain; The ELISA text only says His-tagged human TIGIT; also called His-tagged TIGIT; human TIGIT protein; not shown: His tag
T1 sequence (looked up): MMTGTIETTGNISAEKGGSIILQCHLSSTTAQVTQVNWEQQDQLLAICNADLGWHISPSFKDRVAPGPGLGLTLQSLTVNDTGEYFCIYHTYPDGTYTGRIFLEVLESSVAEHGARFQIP

His-tagged cyno-TIGIT = molecular target: T2, His-tagged cyno-TIGIT (cyno, UniProt A0A7N9I9V4 89-209); assay: ELISA
T2 construct: also called cyno TIGIT protein; not shown: His tag

[2] = molecular target: T1, recombinant His-tagged human TIGIT-ECD …; assay: SPR (Biacore T200), antibody captured, His-tagged TIGIT-ECD injected
Protocol: The binding of the antibodies to recombinant His-tagged human TIGIT-ECD protein was examined by Biacore T200 using a capture method. The anti-TIGIT antibodies were captured using anti-human Fc antibody or Protein A which were coated on chip. The serial concentrations of his-tagged human TIGIT-ECD protein (0-8 nM) were injected over capture antibodies at the flow rate of 30 μl/min. The dissociation phases were 600 s or 1200 s.

[3] = molecular target: T3, human TIGIT expressed on cell surface (human, UniProt Q495A1 22-244); assay: cell-based or functional assay
T3 sequence (looked up): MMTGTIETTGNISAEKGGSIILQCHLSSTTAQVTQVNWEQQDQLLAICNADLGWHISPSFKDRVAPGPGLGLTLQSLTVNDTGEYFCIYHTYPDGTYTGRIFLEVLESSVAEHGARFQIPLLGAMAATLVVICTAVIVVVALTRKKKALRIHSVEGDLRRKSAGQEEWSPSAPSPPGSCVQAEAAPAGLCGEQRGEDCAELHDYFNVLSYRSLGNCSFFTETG

[4] = molecular target: T1, recombinant His-tagged human TIGIT-ECD …; assay: SPR affinity ranking (Biacore 8K or T200)
[5] = molecular target: T1, recombinant His-tagged human TIGIT-ECD …; assay: SPR (Biacore T200), antibody captured, His-tagged TIGIT-ECD injected; remark: listed apart in the source
Protocol: The anti-TIGIT antibodies were captured using anti-human Fc antibody or Protein A which were coated on the chip. Serial concentrations of His-tagged human TIGIT-ECD protein (0-8 nM) were injected over capture antibodies at the flow rate of 30 μl/min. The dissociation phases were 600 s or 1200 s.

T2 sequence (A0A7N9I9V4 entry or part of it): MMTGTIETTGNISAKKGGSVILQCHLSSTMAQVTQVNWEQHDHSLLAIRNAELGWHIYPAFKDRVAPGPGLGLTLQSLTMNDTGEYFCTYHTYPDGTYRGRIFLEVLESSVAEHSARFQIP

binding result (His-tagged cyno-TIGIT): no binding
B7: 131A12 (antibody, human IgG1, V domains shown)
VH: EFQLQQSGPELVKPGASVKISCRASGYSFTAYSMNWVQQTNGKSLEWIGVINPKFGTTNYNQKFRDKATLTVDHSSSAAYMQLNSLTSEDSAVYFCARNGNFAWYFDVWGTGTTVTVSS
VL: DIQMTQSPASLSASVGETVTITCRASENIFSYLAWYQQKQGKSPQLLAYNAETLAEGVPSRFSGSGSGTQFSLKISSLQSEDFGSYYCQHHFGVPWTFGGGTNLEIK
notes: Mouse hybridoma clone

Kd [2]: 0.024 nM
koff [2]: 0.000107 s⁻¹
kon [2]: 4.45e+06 M⁻¹ s⁻¹
B8: 167F7 (antibody, human IgG1, V domains shown)
VH: EFQLQQSGPELVKPGASVKISCRASGYSFTAYSMNWVQQTNGKSLEWIGVINPKFGTINYNQKFKDKATLTVDHSSSAAYMQLNSLTSEDSAVYFCARNGNFAWYFDVWGTGTTVTVSS
VL: DIQMTQSPASLSASVGETVTITCRASESIFSYLAWYQQKQGKSPQLLAYNAETLAEGVPSRFSGSGSGTQFSLKINSLQSEDFGIYYCQHHFGVPWTFGGGTKLEIK
notes: Mouse hybridoma clone

Kd [2]: 0.242 nM
koff [2]: 0.000453 s⁻¹
kon [2]: 1.87e+06 M⁻¹ s⁻¹
B9: 222H4 (antibody, human IgG1, V domains shown)
VH: EVQLQQSGPELVKPGASVKISCKTSGYTFSDYTLHWVKQSHGKNLEWIGGFNPNNGGTNYNQKFKVKASLTIDKSSNTVYMELRSLSSEDSAVYYCARNWAFDYWGQGTTLTVSS
VL: DIVMTQSHKIMSTSLGDRVNITCKASQHVSTAVAWYQQRPGQSPRLLIYSASYRHTGVPDRFTGSGSGTDITFTISSVQTEDLAVYYCQQYYTTPWTFGGGTKLEIK
notes: Mouse hybridoma clone

binding result (His-tagged cyno-TIGIT): no binding
maximum ADCC activity (LDH release, NK92-CD16a effector cells on Jurkat-TIGIT target cells) [3]: 50%
apparent Kd (pooled screen) [4]: 0.487 nM
apparent koff (pooled screen) [4]: 0.00114 s⁻¹
apparent kon (pooled screen) [4]: 2.34e+06 M⁻¹ s⁻¹
apparent Kd (pooled screen) [2]: 0.362 nM
apparent koff (pooled screen) [2]: 0.00105 s⁻¹
apparent kon (pooled screen) [2]: 2.9e+06 M⁻¹ s⁻¹
apparent Kd (pooled screen) [5]: 0.362 nM
apparent koff (pooled screen) [5]: 0.00105 s⁻¹
apparent kon (pooled screen) [5]: 2.9e+06 M⁻¹ s⁻¹
B11: 101E1 (antibody, human IgG1, V domains shown)
VH: DVQLQESGPGLVKPSQSLSLTCTVTGYSITSDYAWNWIRQFPGNKLEWMGYISYSGNTRYNPSLKSRISITRDTSKNQFFLQFNSVTTEDTATYYCSRKYYGSWFPYWGQGTLVTVSA
VL: DIVMTQSHKFMSTSVGDRVSITCKASQDVFTAVAWYQQKPGQSPKLLIYSASYRYTGVPDRFTGSGSGTDFTFTISSVQAEDLAVYYCQQHYSTPWTFGGGTRLEIK
notes: Mouse hybridoma clone; also called 101E1-chimeric

maximum ADCC activity (LDH release, NK92-CD16a effector cells on Jurkat-TIGIT target cells) [3]: 50%
Kd [4]: 0.0716 nM
koff [4]: 0.000189 s⁻¹
kon [4]: 2.64e+06 M⁻¹ s⁻¹
Kd [2]: 0.0822 nM
koff [2]: 0.000154 s⁻¹
kon [2]: 1.87e+06 M⁻¹ s⁻¹
Kd [5]: 0.0822 nM
koff [5]: 0.000154 s⁻¹
kon [5]: 1.87e+06 M⁻¹ s⁻¹
B12: 350D10 (antibody, human IgG1, V domains shown)
VH: EVKLVESGGALVQPGGSLKLSCAASGFTFSDYYMYWVRQTPEKRLEWVASITKGGGSTYYPDTLKGRFTISRDNAKNTLYLQMSRLKSEDTDMYYCARQSSYDFVMDYWGQGTSVTVSS
VL: DIVMTQSHKFMSTSVGDRVTITCKASQDVDTAVAWYQQKPGQSPKLLIYWASARHTGVPDRFTGSGSGTDFTLTISNVQSEDLADYFCQQYSNYPLTFGVGTKLELK
notes: Mouse hybridoma clone; also called 350D10-chimeric

binding result (His-tagged cyno-TIGIT): no binding
B13: 143B6 (antibody, human IgG1, V domains shown)
VH: EVQLVESGGGLVMPGGSLKLSCAASGFTFSGFVMSWVRQTPEKRLEWVATINDAGTYTYYSDNLKGRFTISRDNAKNNLYLQMSHLKSEDAGMYYCARDGGLRAWFPYWGPGTLVTVSA
VL: DIQLTQSPASLSASVGETVTITCRASENIYSYLAWYQLKQGKSPQLLVFNTKTLAEGVPSRFSGSGSGTQFSLRIDSLQLEDFGSFYCQHHIGSPRTFGGGTTLEIR
notes: Mouse hybridoma clone

binding result (His-tagged cyno-TIGIT): no binding
B14: 221F11 (antibody, human IgG1, V domains shown)
VH: EIQLQQTGPELVKPGASVNISCKASGYSFTDYIMIWVKQSHGKSLEWIGNIHPYFGNSHYNLKFKGKATLTVDKSSTTAYMQLNSLTSEDSAVYYCARRGITSAHFDYWGQGTTLTVSS
VL: DIVLTQSPASLAVSLGQRATISCRASKSVSTSGYSYMHWYQQKPGQPPKLLIYRASNLESGVPARFSGSGSGTDFTLNIHPVEEEDAATYYCQHSGDLPWTFGGGTKLEIK
notes: Mouse hybridoma clone

Further lines, the binder ahead of its results:

B1: 101E1HM-1 (antibody, V domains shown)
VH: QVQLQESGPGLVKPSQTLSLTCTVSGYSITDDYAWNWIRQPPGKGLEWMGYISYSGHTKYNPSLKSRVTISRDTSKNQFSLKLSSVTAADTAVYYCARKYYGGWFPRWGQGTLVTVSS
VL: DIQMTQSPSSLSASVGDRVTITCKASQDVFTAVAWYQQKPGKAPKLLIYSASYRPTGVPSRFSGSGSGTDFTFTISSLQPEDFATYYCQQSYSTPWTFGQGTRLEIK
Kd [1]: 2.15 nM
koff [1]: 0.00107 s⁻¹
kon [1]: 496000 M⁻¹ s⁻¹

B2: 101E1HM-3 (antibody, V domains shown)
VH: QVQLQESGPGLVKPSQTLSLTCTVSGYSITDDYAWNWIRQPPGKGLEWMGYISYSGDTKYNPSLKSRVTISRDTSKNQFSLKLSSVTAADTAVYYCARKYYGGWFPVWGQGTLVTVSS
VL: DIQMTQSPSSLSASVGDRVTITCKASQDVFTAVAWYQQKPGKAPKLLIYSASNRNTGVPSRFSGSGSGTDFTFTISSLQPEDFATYYCQQQYSTPWTFGQGTRLEIK
Kd [1]: 0.554 nM
koff [1]: 0.000717 s⁻¹
kon [1]: 1.29e+06 M⁻¹ s⁻¹

B3: 101E1HM-4 (antibody, V domains shown)
VH: QVQLQESGPGLVKPSQTLSLTCTVSGYSITDDYAWNWIRQPPGKGLEWMGYISYSGHTRYNPSLKSRVTISRDTSKNQFSLKLSSVTAADTAVYYCARKYYGSWFPDWGQGTLVTVSS
VL: DIQMTQSPSSLSASVGDRVTITCKASQDVFTAVAWYQQKPGKAPKLLIYSASYRMTGVPSRFSGSGSGTDFTFTISSLQPEDFATYYCQQSYSTPWTFGQGTRLEIK
Kd [1]: 3.08 nM
koff [1]: 0.00439 s⁻¹
kon [1]: 1.43e+06 M⁻¹ s⁻¹

B4: 101E1HM-5 (antibody, V domains shown)
VH: QVQLQESGPGLVKPSQTLSLTCTVSGYSITDDYAWNWIRQPPGKGLEWMGYISYSGITRYNPSLKSRVTISRDTSKNQFSLKLSSVTAADTAVYYCARKYYGGWFPQWGQGTLVTVSS
VL: DIQMTQSPSSLSASVGDRVTITCKASQDVFTAVAWYQQKPGKAPKLLIYSASYRDTGVPSRFSGSGSGTDFTFTISSLQPEDFATYYCQQSYSTPWTFGQGTRLEIK
Kd [1]: 1.29 nM
koff [1]: 0.00209 s⁻¹
kon [1]: 1.63e+06 M⁻¹ s⁻¹

B5: 101E1HM-2 (antibody, V domains shown)
VH: QVQLQESGPGLVKPSQTLSLTCTVSGYSITDDYAWNWIRQPPGKGLEWMGYISYSGNTMYNPSLKSRVTISRDTSKNQFSLKLSSVTAADTAVYYCARKYYGGWFPIWGQGTLVTVSS
VL: DIQMTQSPSSLSASVGDRVTITCKASQDVFTAVAWYQQKPGKAPKLLIYSASYRHTGVPSRFSGSGSGTDFTFTISSLQPEDFATYYCQQSYSTPWTFGQGTRLEIK
Kd [1]: 1.48 nM
koff [1]: 0.00191 s⁻¹
kon [1]: 1.29e+06 M⁻¹ s⁻¹

B6: 116H8 (antibody, human IgG1, V domains shown)
VH: EFQLQQSGPELVKPGASVKISCRASGYSFTAYSMNWVQQTNGKSLEWIGVINPKFGTINYNQKFKGKATLTVDQSSSAAYIQLNSLTSEDSAVYFCARNGNFAWYFDVWGTGTTVTVSS
VL: DIQMTQSPASLSASVGETVTITCRASENIFSYLAWYQQKQGKSPQLLVYNAKTLPEGVPSRFSGSGSGTQFSLKINSLQSEDFGSYYCQHHYGVPWTFGGGTKLEIK
notes: Mouse hybridoma clone
binding result (His-tagged cyno-TIGIT): no binding

B10: 90D9 (antibody, V domains shown)
VH: EVQLQQSGPELVKPGASVKISCKTSGYTFTENTMHWVKQSHGKSLEWIGGINPNQGGNRNNQKFKGKATLTVDKSSSTAYMELRSLTSEDSAVYYCARSGLRDYAMDYWGQGTSVTVSS
VL: DIVMTQSHKFMSTSVGDRVSITCKASQHVSTAVVWYQQKPGQSPKLLIYSPSYRYTGVPDRFTGSGSGTDFTFTISSVQAEDLAVYYCQQHYSTPWTFGGGTKLEIK
notes: Mouse hybridoma clone; also called 90D9-chimeric
maximum ADCC activity (LDH release, NK92-CD16a effector cells on Jurkat-TIGIT target cells) [3]: 50%
Kd [4]: 0.296 nM
koff [4]: 3.25e-05 s⁻¹
kon [4]: 110000 M⁻¹ s⁻¹
Kd [2]: 0.252 nM
koff [2]: 0.000156 s⁻¹
kon [2]: 619000 M⁻¹ s⁻¹
Kd [5]: 0.374 nM
koff [5]: 0.000167 s⁻¹
kon [5]: 446000 M⁻¹ s⁻¹
